Tests used:
[1] = molecular target: xrcc4_human XRCC4 (UniProt Q13426)
[2] = molecular target: xrcc4_human XRCC4 (UniProt Q13426); remark: listed apart in the source

Sequence of xrcc4_human XRCC4 (Q13426 whole entry): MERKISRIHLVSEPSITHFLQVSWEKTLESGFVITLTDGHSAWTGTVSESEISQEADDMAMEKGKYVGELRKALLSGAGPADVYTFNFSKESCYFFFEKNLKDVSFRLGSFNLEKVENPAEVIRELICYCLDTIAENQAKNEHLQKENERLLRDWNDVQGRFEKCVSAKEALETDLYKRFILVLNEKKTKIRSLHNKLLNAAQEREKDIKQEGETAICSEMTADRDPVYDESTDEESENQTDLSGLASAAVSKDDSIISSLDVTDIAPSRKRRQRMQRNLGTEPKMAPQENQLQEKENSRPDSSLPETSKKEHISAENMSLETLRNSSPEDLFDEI

Row | effect of a mutation on the interaction [1] | effect of a mutation on the interaction [2] | Substance
1 | decreasing interaction |  | Bifunctional polynucleotide phosphatase/kinase (Homo sapiens), Q96T60 S114A
2 |  | decreasing interaction | Bifunctional polynucleotide phosphatase/kinase (Homo sapiens), Q96T60 S126A
